Test results: patent publication US20060036083

Target: human neutrophil peptide (HNP)-1
Sequence (chain, as listed by the source): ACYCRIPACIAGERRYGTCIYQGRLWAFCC

B1: recombinant ADP-ribosyltransferase (ART)-1 with a FLAG tag, cloned from a rabbit muscle cDNA library (protein)
chain: QSHLVTRRDLFSQETPLDMAPASFDDQYVGCAAAMTAALPHLNLTEFQVNKVYADGWALASSQWRERSAWGPEWGLSTTRLPPPPAGFRDEHGVALLAYTANSPLHKEFNAAVRQAGRSRAHYLQHFSFKTLHFLLTEALQLLGRDQRMPRCRQVFRGVHGLRFRPAGPGTTVRLGGFASASLKNVAAQQFGEDTFFGIWTCLGVPIQGYSFFPGEEEVLIPPFETFQVINASRPAQGPARIYLKALGKRSSYNCEYIKEMQCKSRPCHLDNS
  ADP-ribosylation of HNP-1 by ART-1 with NAD+ (RP-HPLC, MALDI mass spectrometry): peptides with a mass of 3,983 daltons (retention time 46.5 minutes), consistent with mono-ADP-ribosyl-HNP (calculated mass equivalent to 3,983 daltons), were identified
